The numbers were not newly measured in US20180185417, which cites them from elsewhere.

This data set has as its target CD31 (PECAM-1) (Homo sapiens) (UniProt P16284). As to conditions: CITED reported affinity of the commercial aptamer (1.14×10−9 M), method not stated.

What is called Kd is the constant that tells how readily two partners part at equilibrium. Turning to CD31 aptamer (APTSCI CD31-2196BCI), the Kd is 1.14 nM.
